Results: US20190309066A1 (ARCH ONCOLOGY, published 2019)

Target: T1, human CD47 expressed on cells (human, UniProt Q08722 19-292)
T1 construct: also called hCD47; integrin-associated protein
Experiment: flow cytometry on freshly isolated human RBCs, FITC-labelled donkey anti-human antibody, MFI
Method: FIG. 7. Binding of VLX9 Humanized mAbs to Human RBCs. […] RBCs were incubated for 60 minutes at 37° C. with various concentrations of VLX9 mAbs, washed and incubated for 1 hr with FITC-labelled donkey anti-human antibody. Cells were washed and antibody binding measured using flow cytometry.
Binding activities of chimeric and humanized VLX4, VLX8, and VLX9 mAbs to human CD47 on hRBCs were also determined using flow cytometry.

T1 sequence (Q08722 other isoform, or with tags, fused parts or gaps limits assumed): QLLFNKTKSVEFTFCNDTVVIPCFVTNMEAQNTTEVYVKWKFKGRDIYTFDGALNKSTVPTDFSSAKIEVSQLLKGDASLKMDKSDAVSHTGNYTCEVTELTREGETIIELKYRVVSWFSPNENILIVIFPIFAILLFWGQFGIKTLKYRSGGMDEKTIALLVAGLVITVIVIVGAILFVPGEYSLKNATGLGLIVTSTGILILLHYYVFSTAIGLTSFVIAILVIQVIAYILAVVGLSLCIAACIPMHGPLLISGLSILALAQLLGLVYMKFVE

- EC50 (read off the curve): ~0.5 nM
B1: VLX9 IgG2 (xi) (antibody)
heavy: QVQLQQFGAELAKPGASVQMSCKASGYTFTNYWIHWVKQRPGQGLEWIGYTDPRTDYTEYNQKFKDKATLAADRSSSTAYMRLSSLTSEDSAVYYCAGGGRVGLGYWGHGSSVTVSSASTKGPSVFPLAPCSRSTSESTAALGCLVKDYFPEPVTVSWNSGALTSGVHTFPAVLQSSGLYSLSSVVTVPSSNFGTQTYTCNVDHKPSNTKVDKTVERKCCVECPPCPAPPVAGPSVFLFPPKPKDTLMISRTPEVTCVVVDVSHEDPEVQFNWYVDGVEVHNAKTKPREEQFNSTFRVVSVLTVVHQDWLNGKEYKCKVSNKGLPAPIEKTISKTKGQPREPQVYTLPPSREEMTKNQVSLTCLVKGFYPSDIAVEWESNGQPENNYKTTPPMLDSDGSFFLYSKLTVDKSRWQQGNVFSCSVMHEALHNHYTQKSLSLSPGK
light: DVFMTQTPLSLPVSLGDQASISCRSSQNIVQSNGNTYLEWYLQKPGQSPKLLIYKVFHRFSGVPDRFSGSGSGTDFTLKISRVEAEDLGVYYCFQGSHVPWTFGGGTKVEIKRTVAAPSVFIFPPSDEQLKSGTASVVCLLNNFYPREAKVQWKVDNALQSGNSQESVTEQDSKDSTYSLSSTLTLSKADYEKHKVYACEVTHQGLSSPVTKSFNRGEC
notes: murine-human chimera; also called VLX9 IgG2 chimera (xi)
